Experimental data published in the nanobody polyreactivity screen of Harvey et al. (2022).

Assay: yeast display, Sf9 membrane polyspecificity reagent, FACS + sequencing; frameworks hold sequencing errors
In short: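 Synthetic nanobody libraries on Saccharomyces cerevisiae BJ5465 were galactose-induced for 36–48 hours, stained 1 hour at 4 °C with 10% biotinylated, detergent-solubilized Sf9 membrane reagent and enriched on streptavidin microbeads. FACS then separated cells into low and high (top ~1%) gates by anti-HA (expression) and streptavidin (reagent binding) fluorescence. Genes were colony-PCR amplified, MiSeq 2 × 250 sequenced and CDR-length filtered. A clone's polyreactivity label is that of its gate of origin.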

| Sequence | polyreactivity (PSR sort gate) |
| --- | --- |
| QVQLVESGGGLVQAGGSLRLSCAASGFTFSINTMGWYRQAPGKERQFVAGISRSGGSTYYADSVKWRFTISRDNAKNTVYLQMNSLKPEDTAVYYCAAGGPYWSRYEYWGQGNQVTVSS | high polyreactivity |
| QVQLVESGGGLVQAGGSLRLSCAASGFTFSLYAMGWYRQAPGKEREMVAAISRIGGRTYYADSVKGRFTISRDNAKNTVYLQMNSLKPEDTAVYYCAARQGYRSYRRYDYWGQGTQVTVSS | high polyreactivity |
| QVQLVESGGGLVQAGGSLRLSCAASGFTFSNYAMGWYRQAPGKERELVAAISFRTGRTYYADSVKGRFTISRDNAKNTVYLQMNSLKPEDTAVYYCAAVVQSSEPVEYDYWGQGTQVTVSS | high polyreactivity |
| QVQLVESGGGLVQAGGSLRLSCAASGFTFSPNAMGWDRQAPGKERELVATISWNGGRTHYADSVKGRFTISRDNANKTVYLQMNSLKPEDTAVYYCNVVRATGRYYYWGQGTQVTVSS | high polyreactivity |
| QVQLVESGGGLVQAGGSLRLSCAASGFTFSQYAMGWYRQAPGKERELVAAISRSGGSTYYADSVKGRFTISRDNAKNTVYLQMNSLKPEDTAVYYCAARGPVGYGWRYRPWHDYWGQGTQVTVSS | high polyreactivity |
| QVQLVESGGGLVQAGGSLRLSCAASGFTFSRNAMGWYRQAPGKERELVAAISQSGGSTYYADSVKGRFTISRDNAKNTVYLQMNSRKPEDTAVYYCAATGWIIIKPTSSLKFNYWGQGTQVTVSS | high polyreactivity |
| QVQLVESGGGLVQAGGSLRLSCAASGFTFSRNAMGWYRQAPGKERELVAAITWSGGRTYYADSVKGRFTLSRDNAKNTVYLQMNSLKPEDTAVYYCAARKYHLRSAYDYWGHGTQVTVSS | low polyreactivity |
| QVQLVESGGGLVQAGGSLRLSCAASGFTFSRNTMGWYRQAPGKEREFVAGIRRSGSSTYYADSVKGRFTISRDNAKNTVYLQMNSLKPEDTAVYYCARVNGAKQGGEYDYWGQGTQVTVSS | high polyreactivity |
| QVQLVESGGGLVQAGGSLRLSCAASGFTFSRNTMGWYRQAPGKERELVARISASGGSTYYADSVKGRFTISRDNAKNTVYLQMNSLKPEDTAVYYCAAVYRRYGGSRYDYWGQGTQVTVSS | high polyreactivity |
| QVQLVESGGGLVQAGGSLRLSCAASGFTFSRNTMGWYSQAPGKERELVARISASGGSTYFADSVKGRITISRDNAKNTVYLQMTSLKQEATAVYYCAAVYRRYGGSRYDYWGQGTQVTVSS | high polyreactivity |
| QVQLVESGGGLVQAGGSLRLSCAASGFTFSRNTMGWYSQAPGKERELVARISASGGSTYYADSVKGRITISRDNAKNTVYLQMNSLKPEATAVYYCAAVYRRYGGSRYDYWGQGTQVTVSS | high polyreactivity |
| QVQLVESGGGLVQAGGSLRLSCAASGFTFSRNVMGWYRQAPGKERELVADITLSGASTYYADSVKGRFTISRDNAKNTVYLQMNSLKPEDTAVYYCAAEPYHWRWGWRHDYWGQGTQVTVSS | low polyreactivity |
| QVQLVESGGGLVQAGGSLRLSCAASGFTFSRYAMGGYRQAPGKERELVAAISIRGGNTYYADSVKGRFTISRDNAKNTVYLQMNSLKPEDTAVYYCAAAGRYLRYAYWGQGTQVTVSS | high polyreactivity |
| QVQLVESGGGLVQAGGSLRLSCAASGFTFSRYAMGWYRQAPGKERELVAAIDDGGSTYYADSVKGRFTISRDNAKNTVYLQMNSLKPEDTAVYYCNARGYGTLNVRRERMDYWGQGTQVTVSS | high polyreactivity |
| QVQLVESGGGLVQAGGSLRLSCAASGFTFSRYAMGWYRQAPGKERELVAAITRGGSTNYADSVKGRFTISRDNAKNTVYLQMNSLKPEDTAVYYCAVRIRYSTNAYYYWGQGTQVTVSS | high polyreactivity |
| QVQLVESGGGLVQAGGSLRLSCAASGFTFSSNAMGWSRPAPGKERELVAGITWSGGSTYYADSVKGRFTISRDNAKNTVYLQMNRLKPEDTAVYYCNFRYNASQYDYVYWGQGTQVTVSS | low polyreactivity |
| QVQLVESGGGLVQAGGSLRLSCAASGFTFSSNAMGWYRQAPGKERELVAAISRGGRTYYADSVKGRFTISRDNAKNTVYLQMNSLKPEDTAVYYCATDYVYRYDYWGQGTQVTVSS | high polyreactivity |
| QVQLVESGGGLVQAGGSLRLSCAASGFTFSSNAMGWYRQAPGKERELVAVIDSGDITNYADSVKGRFTISRDYAKNTVYLQMNSLKPEDTAVYYCAADSYSYFTDDHGYWGQGTQVTVSS | high polyreactivity |
| QVQLVESGGGLVQAGGSLRLSCAASGFTFSSYDMGWYRQAPGKDRDLVAAIDFIDGSTYYADSVKGRFTISRDNAKKTVYLQKNSLKPEDTAVYYCAADPVFKVELWPVRVRVDYWGQGTQVTVSS | low polyreactivity |
| QVQLVESGGGLVQAGGSLRLSCAASGFTFSSYVMGWYRQAPGKERELVAAISGSGGSTYYADSVKGRFTISRDNAKNTVYLQMNSLKPEDTAVYYCAAVRRVGPTSYYYWGQGTQVTVSS | high polyreactivity |
| QVQLVESGGGLVQAGGSLRLSCAASGFTFSTNAMGWYRQAPGKERELVAAISRGGSTNYADSVKGRFTISRDIAKNTVYLQMNSLKPEDTAVYYCNAYQSPDEEEYYWGQGTQVTVSS | low polyreactivity |

| Sequence | polyreactivity (PSR sort gate) |
| --- | --- |
| QVQLVESGGGLVQAGGSLRLSCAASGFTFSTYAMGWYRPAPGKERELGAAISRSGGSTYYADSVKGRFTISRDNAKNTVYLQMNSLKPEDTAVYYCAADGLRRESSYYYWAQGTQVTVSS | high polyreactivity |
| QVQLVESGGGLVQAGGSLRLSCAASGFTFSVNAMGWYRQAPGKERELVAAITWSGGSTYYADSVKGRFTISRDNAKNTDYLQMNSLKPEDTAVFYCNARAQSSWGFWYDYWGQGTQVTVSS | high polyreactivity |
| QVQLVESGGGLVQAGGSLRLSCAASGFTFSVYTMGWYRQAPGNERELVAALRVSSGGTFYADSVKGRFTISRDNAKNTVYLQRNSLKPEDTAVYYCAVDRYTYDPIFSVVRRYDYWGQGTQVTVSS | high polyreactivity |
| QVQLVESGGGLVQAGGSLRLSCAASGFTFSYNAMGWYRPAPGKERELVAVITKSGGSTYYADSVKGRFTISRDNAKNTVYLQMNSLKPEDTAVYYCNRQIKKLLTTHYYWGQGTQVTVSS | high polyreactivity |
| QVQLVESGGGLVQAGGSLRLSCAASGFTFSYNAMGWYRQAPGKERELVAVIKSSGGRTYYADSVKGRFTISRDNAKNTVYLQMNSLKPEDTAVYYCNAVYLQHRYRMYYWGQGTQVTVSS | high polyreactivity |
| QVQLVESGGGLVQAGGSLRLSCAASGFTFSYNAMGWYRQAPGKERELVAVINSSGGRTYYADSVKGRFTISRDNAKNTVYLQMNSLKPEDTAVYYCAARPVLAKYYYWGQGTQVTVSS | high polyreactivity |
| QVQLVESGGGLVQAGGSLRLSCAASGFTFSYNTMGWYRQAPGKERELVAAISRSGGRTYYADSVKGRFTISRDNAKNTVYLQMNSLKPEDTAVYYCARYSVTGYGANSGPEMDYWGQGTQVTVSS | high polyreactivity |
| QVQLVESGGGLVQAGGSLRLSCAASGFTFSYYALGWYRQAPGKERELVAVISDRGGITYYADSVKGRFTISRDNAKNTVYLQMNSRKPEDTAVYYCAAQNPRYNYRYYYWGQGTQVTVSS | low polyreactivity |
| QVQLVESGGGLVQAGGSLRLSCAASGFTFSYYAMGWYRPAPGKERELVAAITSGGSTYYADYVKGRFTISRDNAKNTVYLQMNSLKPEDTAVYYCNADGWYYPTDDYWGQGTQVTVSS | low polyreactivity |
| QVQLVESGGGLVQAGGSLRLSCAASGFTFSYYAMGWYRQAPGKERELVAAISFNGGRTYYADSVKGRFTISRDNAKNTVYLQMISLKPEDTAVYYCAARSLRPETLGDYWGQGTQVTVSS | high polyreactivity |
| QVQLVESGGGLVQAGGSLRLSCAASGFTFSYYAMGWYRQAPGKERELVAAISGSGTRTYYADSVKGRFTISRDNAKNTVYLQMNSLKPEDTAVYYCAADLYVTYDYWGQGTQVTVSS | high polyreactivity |
| QVQLVESGGGLVQAGGSLRLSCAASGFTFSYYAMGWYRQAPGKERELVAAISSGGSTYYADSVKGRFTISRDNAKNTVYLQMNSLKPEDTAVYYCNVLNYSSRHYLFSYDYWGQGTQVTVSS | high polyreactivity |
| QVQLVESGGGLVQAGGSLRLSCAASGFTFTAYAMGWYRPAPGKERELVAAISYRGGRTNYAYSVKGRFTISRDNAKNTVYLQMNSLKPEDTAVYYCAARPRISTREMDYWGQGTQVTVSS | high polyreactivity |
| QVQLVESGGGLVQAGGSLRLSCAASGFTFTAYAMGWYRQAPGKERELVAAINWSGSRTYYADSVKGRFTISRDHAKNTVYLQMNSLKPEDTAVYYCNTATSKSSYRHYDYWGQGTQVTVSS | high polyreactivity |
| QVQLVESGGGLVQAGGSLRLSCAASGFTFTAYAMGWYRQEPGKERELVAAITGTGGSTKYADSVKGRFTISRDNATNTVYLQMNSLKPEDTAVYYCAKRYRLRGRYDYWGQGTQVTVSS | high polyreactivity |
| QVQLVESGGGLVQAGGSLRLSCAASGFTFTDYAMGWYRQAPGKERELVAAITSGDSTYYADSVKGRFTISRDNAKNTVYLQMNSLKPEDTAVYYCNKLRRSPNSQYYYWGQGTQVTVSS | high polyreactivity |
| QVQLVESGGGLVQAGGSLRLSCAASGFTFTFNAMGWYRQEPGKEREFVAAITWSGGSTYYADSVKGRFTISRDNAKNTVYLQMNSLKPEDTAVYYCAARLYRSFTFNYWGQGTQVTVSS | high polyreactivity |
| QVQLVESGGGLVQAGGSLRLSCAASGFTFTGYAMGWYRQAPGKERELVAAITRGGGSTYYADSVKGRFTISRDNAKNTVYLQMNSLKPEDTAVYYCAAQRSRLIRISSPYYGHDYWGQGTQVTVSS | low polyreactivity |
| QVQLVESGGGLVQAGGSLRLSCAASGFTFTGYAMGWYRQAPGKERELVAVISETGGSTYADSVKGRFTISRDNAKNTVYLQMNSLKPEDTAVYYCNARSGYYLRYYDYDYWGQGTQVTVSS | low polyreactivity |
| QVQLVESGGGLVQAGGSLRLSCAASGFTFTHYAMGWYRQAPGKERELVAAITDTGGGTYYADSVKGRFTISRDTAKNTVYLQMNSLKPEDTAVYYCAKPTSYRGYYSWGQGTQVTVSS | high polyreactivity |
